Assay results taken from US20220340636A1.

Tests used:
[1] = biological target: human insulin receptor (hIR) (human) (UniProt P06213); assay: cell-based or functional assay
[2] = biological target: human insulin receptor (hIR) (human) (UniProt P06213); assay: binding to hIR, assay not described at this place; reference human insulin
[3] = biological target: human IR-B overexpressed on NIH 3T3 mouse fibroblast cells (human) (UniProt P06213); assay: cell-based or functional assay
[4] = biological target: solubilised immuno-captured human IR (isoform B) (human) (UniProt P06213); assay: competition binding on human IR-B (FIG. 2); reference PTM-free sCon-Ins G1
[5] = biological target: solubilised immuno-captured human IR (isoform B) (human) (UniProt P06213)

Substance “B10E, B20 biphenyl DOI analogue (ligand)” has a fold higher potency than N10E, B20Y DOI [1] of 3 fold, a fold increase of the potency of DOI [1] of 100 fold and a percent of the potency of human insulin [1] of 10%.

B20 Tyr DOI analogue (ligand) was tested, and the fold increased potency in hIR activation (against DOI) [1] was 5 fold.

Work on Con-Ins G1 (ligand) yielded a fold less affinity than human insulin [2] of 30 fold.

For “DOI analogue with B10 Glu and B20 Tyr (ligand)”, the fold increase in potency compared to B20 Tyr alone [1] was 5 fold.

In the case of hIns[TyrB15, TyrB20, DOI] (ligand), the fold more active than hIns[DOI], Akt phosphorylation assay [3] is reported as 5 fold and the fold increased potency in hIR activation (against DOI) [1] is reported as 5 fold.

sCon-Ins G1 (ligand) showed a fold more active than the PTM-free analogue [4] of 4 fold, a fold less active than hIns [5] of 30 fold and a log [IC50 (nM)] [5] of 1.24 log nM.
